Data on 14 sequences can be found in the DeepSol protein solubility set.

The nature of this series: soluble on expression in E. coli; label from the status in PepcDB or PDB records.
With “MGSDKIHHHHHHMKSYLTPLALLVSSVFSTVAYAETQLFVTTSSTQDAPLHIVYPTGIRIGQAVQDGLQQLPLYNKTNNKEVMPIYWLGAALVDLENTAVLETKRQQVLSQLAQMGEATNDSRYITKLAQLAQFLRGIKLGQRVMQPLDIDAIRITESYNAIIEGKYQLVLPPRPSTITLVGAVTQTGNMPWQSQTSSKDYLKQAGLLENAETSFVWIIQPDGNAIRQPIAYWNYQAQDIAPGATLFVEFSSLFDGYANLNENIIELLKNRTL”, the “soluble on expression in E. coli” value was “not soluble”.

Take “MYDCAAPSLSTGRNTMNHTAELEKALTDLRHITGISMEIHAETEEEVTKALEQLKLLSSAYKEKYNKIHFLQSLMTDSIPTYNVYDRAARLHIAPEEPRILYLLETSHSLDEDISEILKNLFPSQSGAFRIPLTEASCAILCPVRSLADSSQETVHLTARMIVDTVNAEALARVRVSYSKTLHNLLDLSTAFRETSLALKVGKLFYSEQTVFPYNRLGIGRLIYRLPTSLCENFLHEIFGEEIPQALDEETTATVNKFLQNNLNIAETSRQLHMHRNTLIYRLEQIEKRTGLDLRQFEDAMTFKIASMVMNYLYTERNIPHE”: the “soluble on expression in E. coli” value is “not soluble”.

For “MAPAPAAEFWEARYRDTGRVWSGRPNELLVQEAGGLAPGTALDLGCGEGADAVWLASRGWRVTGVDISATALERAAGHADGAGVGDRVLWERHELGPSFPEGSFDLVSAHYLQSPVALDQQAVLRAAARAVAPGGTLLVVMHAGWPSWQTEPPFDAAFPTLDGVLAELALPEGEWSVETRRTARRPLEHHHHHH”, the “soluble on expression in E. coli” value is reported as “not soluble”.

Take “MAAPAALKRISATVWELPVSYKKGMLVPARIIATEKLINAMDAGVFEQVSNVACLPGIQKYAFCMPDGHWGYGFPIGGLAAMDPETGVISPGGIGFDINCGMRLVLTTLTYEEVKPRLRELVDALFYRVPAGVGSHGFVRLSHDEFCRVAEQGSSWCLKHGYAWPEDLEMTEEHGCFTGADATKVSQRAVDRGYNQIGTLGSGNHYLEVQVARPENIFDEDTARAFGITVPNQVVIMFHCGSRGFGHQVATDYLQLFLSVMEKKYGIRTNDRELACAPFRSREGQDYFAAMKCAVNMAFANRQVILHRIREVFSDVFGRDPGDLGMDMVYDVAHNTAKLETHLVDGKKRELLVHRKGATRAFGPGMEGIPARYRETGQPVIIGGSMETGSYLLAGDPGGGDTFFTTAHGSGRTMSRHQAKKLIKGQKLQRDMEERGIYVRTASWGGLAEEAGQAYKNIDDVAEATELSHLSRRVARLVPIGNVKGLEHHHHHH”: the “soluble on expression in E. coli” value is “not soluble”.

Take “MLTLLRRGLLVFLAAFPLLSMAAPTPQQVVQGTVDELLSDIKANKAAYKADPQKLYATLDRILGPVVDAEGIAKSVMTVKYSRQASPEQIKRFEEVFKNSLMQFYGNALLEYDNQDIRVLPSSAKPSDDRASVNMEIRDSKGTVYPVSYTMTNLAGGWKVRNVIINGINIGKLFRDQFADTMQKNRNDLEKTIAGWGEVVAKAKETAKAEEAGAKAAALEHHHHHH”: the “soluble on expression in E. coli” value is “soluble”.

Consider “GPLGSMASKKVCIVGSGNWGSAIAKIVGGNAAQLAQFDPRVTMWVFEEDIGGKKLTEIINTQHENVKYLPGHKLPPNVVAVPDVVQAAEDADILIFVVPHQFIGKICDQLKGHLKANATGISLIKGVDEGPNGLKLISEVIGERLGIPMSVLMGANIASEVADEKFCETTIGCKDPAQGQLLKELMQTPNFRITVVQEVDTVEICGALKNVVAVGAGFCDGLGFGDNTKAAVIRLGLMEMIAFAKLFCSGPVSSATFLESCGVADLITTCYGGRNRKVAEAFARTGKSIEQLEKELLNGQKLQGPETARELYSILQHKGLVDKFPLFMAVYKVCYEGQPVGEFIHCLQNHPEHM”, for which the “soluble on expression in E. coli” value was “soluble”.

Take “MGSDKIHHHHHHMAKYPNTFHRASLMKQMTFADAEYAGKRKHTRRERFLIEMDQVVPWKGLIALIEPHYPKGEGGRPAYPLMAMLRIHLMQNWFGYSDPAMEEALYETTILRQFAGLSLDRIADETTILNFRRLLEKHELAGGILQVINGYLGDRGLMLRQGTVVDATIIHAPSSTKNKDGKRDPEMHQTKKGNQYFFGMKAHIGVDAESGLVHSLVGTAANVADVTQVDQLLHGEETYVSGDAGYTGVDKRAEHQDRQMIWSIAARPSRYKKHGEKSLIARVYRKIEFTKAQLRAKVEHPFRVIKRQFGYTKVRFRGLAKNTAQQATLFALSNLWMVRKRLLAMGEVRL”: the “soluble on expression in E. coli” value was “not soluble”.

Turning to “MGSDKIHHHHHHMSISLATISGRVHAGERISDEEALFLFESRDPLAVGELAAAVNRRRNGDRVFFNVNRHINHTNICVNRCSFCAFYRAADEPGAYLYDLEEIRNRAAEAHAQGATEIHIVGGLHPDLPFDFYLAMLRTVKEVSPDLHVKAFTAVEIEYLSRLAGLSTAETLTVLKEAGLGSLPGGGAEIFAPAVRNRLCPEKISGDKWLAIMEEVHRAGLKSNATMLYGHIESYADRVDHMRRLRELQDRTGGFQVFIPLAFQKDNNPLGHLKRPGPGGVDALLTLAVARIYLDNFANIKAYWVMLGVKIAQTSLAFGVNDLDGTVVEEKIGHDAGAASPQTMGRDEIVSLIRTAGRVPVERDTLYNELRVY”, the “soluble on expression in E. coli” value was “not soluble”.

Take “DEETKAFEALLSNIVKPVASDIQARTVVLTWSPPSSLINGETDESSVPELYGYEVLISSTGKDGKYKSVYVGEETNITLNDLKPAMDYHAKVQAEYNSIKGTPSEAEIFTTLSCEPDIPNPPRI”: the “soluble on expression in E. coli” value is reported as “soluble”.

For the sequence “MSLYKLIALDMDGTLLNDDKIISKRNKEAIKKAKNLGYKVVLSTGRPLKGVERYLKELDLVNDDDYAIAFNGGLVQNTKTGEVLGKELMKFEDLDRLYKLSQKFNVNIHMLSINECITPKKNPYTEVEVNINQIPLIEKNFNELPHDTVIVKIMMIDSKEKLDKVEKLLPKEIYDDYSVARSSDIFLEFSPKGVHKGVGLKILSEHLNLKKEELIAVGDAGNDIAMIEYAGLGVAMGNAFPYVKESADYVTDNNETHGVAKVIEKFMLNEGHHHHHH”, the “soluble on expression in E. coli” value is reported as “soluble”.

For the sequence “MTLTRKTLFLLTAAFGTHSLQTASADAVVKAEKLHASANRSYKVAGKRYTPKNQVAEFTQTGNASWYGGRFHGRKTSGGERYDMNAFTAAHKTLPIPSYVRVTNTKNGKSVIVRVNDRGPFHGNRIIDVSKAAAQKLGFVNQGTAHVKIEQIVPGQSAPVAENKDIFIDLKSFGTEHEAQAYLNQAAQNFAVSSSGTNLSVEKRRYEYVVKMGPFTSQERAAEAEAQARGMVRAVLTAG”, the “soluble on expression in E. coli” value is reported as “not soluble”.

Take “MGSSHHHHHHSSGLVPRGSNLKIKLQKRRDEVNTCLCIGLDPDEADIKSFMQSEKQNGYQSVKKNLSNSGSSSSSSNSSSGKGELFAPQMGGQMLLAETPPKEAQEKDEFFYFFNHFCFYIINETKEYALAYKMNFAFYLPYGSLGVDVLKNVFDYLHHLNVPTILDIKMNDIGNTVKHYRKFIFDYLRSDSCTANIYMGTQMLRDICLDEECKRYYSTFVLVKTTNADSHIFQNRLSLDGKEAYVVIAEEVQKMAKQLHLEENGEFVGFVVGANCYDEIKKIRELFPDCYILAPGVGAQKGDLRKMLCNGYSKNYEKVLINVGRAITKSGSPQQAAREYHQQIKEVLAELQE”: the “soluble on expression in E. coli” value is recorded as “soluble”.

Turning to “MGSDKIHHHHHHMDELLEKAKKVREAWDVLRNATTREKNKAIKKIAEKLDERRKEILEANRIDVEKARERGVKESLVDRLALNDKRIDEMIKACETVIGLKDPVGEVIDSWVREDGLRIARVRVPIGPIGIIYESRPNVTVETTILALKSGNTILLRGGSDALNSNKAIVSAIREALKETEIPESSVEFIENTDRSLVLEMIRLREYLSLVIPRGGYGLISFVRDNATVPVLETGVGNCHIFVDESADLKKAVPVIINAKTQRPGTCNAAEKLLVHEKIAKEFLPVIVEELRKHGVEVRGCEKTREIVPDVVPATEDDWPTEYLDLIIAIKVVKNVDEAIEHIKKYSTGHSESILTENYSNAKKFVSEIDAAAVYVNASTRFTDGGQFGFGAEIGISTQRFHARGPVGLRELTTYKFVVLGEYHVRE”, the “soluble on expression in E. coli” value is “soluble”.

As to “MEQSQRTQLSYEGAKSVIRFMSIEKRIQIHCRIPYYRKTNALFPYAHRQMTLSSDGISIGSNHYTFDIRRSNFGRRFRDDFGGESDEEPEAAPLEPALAELNLRDRARREREILREEHYQREDDERLRAQQNQVHIRYGETQYEVRRNFGQRRNPEEAFIKLFDAYISTGTTIEKLLFTGFPKFLKKRDPSKLQFKVRELKLSSLRDRTLEKIVPFIGASKLKKMNLDVGPDTISYLDLPMIKNCEVLNLNISMWNERNRQRNENNNFSKLSNLRNMKLNLILERFTIDDLQRLALNWIFTRRPIGTYFKTGVNQQYDHILDIFDRLIEENRASRCRITKLGTVYFANGVKLSIDGKSELVVYGGPKWKTRAGIDGQWTIHMEVMAVGDTTPSA”, the “soluble on expression in E. coli” value is on record as “not soluble”.
